Data as given in patent US20200190209A1.

Target: recombinant human CD38 his tagged (extracellular domain) (human) (UniProt P28907)
Test: ForteBio BLI

Substance “IB4 (reference monoclonal agonistic mouse anti-human CD38 antibody)” has a Kd of 9 nM.
